First the molecules themselves.
B1: Endoglin (Homo sapiens), P17813 (parent)
chain: MDRGTLPLAVALLLASCSLSPTSLAETVHCDLQPVGPERGEVTYTTSQVSKGCVAQAPNAILEVHVLFLEFPTGPSQLELTLQASKQNGTWPREVLLVLSVNSSVFLHLQALGIPLHLAYNSSLVTFQEPPGVNTTELPSFPKTQILEWAAERGPITSAAELNDPQSILLRLGQAQGSLSFCMLEASQDMGRTLEWRPRTPALVRGCHLEGVAGHKEAHILRVLPGHSAGPRTVTVKVELSCAPGDLDAVLILQGPPYVSWLIDANHNMQIWTTGEYSFKIFPEKNIRGFKLPDTPQGLLGEARMLNASIVASFVELPLASIVSLHASSCGGRLQTSPAPIQTTPPKDTCSPELLMSLIQTKCADDAMTLVLKKELVAHLKCTITGLTFWDPSCEAEDRGDKFVLRSAYSSCGMQVSASMISNEAVVNILSSSSPQRKKVHCLNMDSLSFQLGLYLSPHFLQASNTIEPGQQSFVQVRVSPSVSEFLLQLDSCHLDLGPEGGTVELIQGRAAKGNCVSLLSPSPEGDPRFSFLLHFYTVPIPKTGTLSCTVALRPKTGSQDQEVHRTVFMRLNIISPDLSGCTSKGLVLPAVLGITFGAFLIGALLTAALWYIYSHTRSPSKREPVVAVAAPASSESSSTNHSIGSTQSTPCSTSSMA

This test covers variants of B1. Conditions: with arrb2_human ARRB2, P32121.
Chain of arrb2_human ARRB2, P32121 (P32121 whole entry): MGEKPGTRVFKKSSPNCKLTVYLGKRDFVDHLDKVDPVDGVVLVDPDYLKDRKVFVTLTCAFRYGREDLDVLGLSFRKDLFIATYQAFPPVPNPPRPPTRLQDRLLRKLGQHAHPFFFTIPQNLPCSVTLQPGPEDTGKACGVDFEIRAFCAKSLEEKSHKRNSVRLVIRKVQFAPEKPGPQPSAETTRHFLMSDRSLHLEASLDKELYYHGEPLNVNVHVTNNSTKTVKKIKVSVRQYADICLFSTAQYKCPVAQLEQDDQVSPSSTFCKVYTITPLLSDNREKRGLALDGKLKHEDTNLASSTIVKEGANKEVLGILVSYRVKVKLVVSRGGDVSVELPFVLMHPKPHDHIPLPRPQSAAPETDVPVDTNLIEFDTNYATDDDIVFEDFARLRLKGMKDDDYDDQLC
For T650A, the “effect of a mutation on the interaction” value is given as “disrupting interaction”.
